{
  "source": "the DeepSol protein solubility set",
  "data": [
    {"assay": "soluble on expression in E. coli; label from the status in PepcDB or PDB records", "values": [
      {"sequence": "MIDKSAFIHPTAIVEDGAVIGANAHIGPFCIVGPQVEIGEGTVLKSHVVVNGQTKIGRDNEIYQFASIGEVNQDLKYAGEPTRVEIGDRNRIRESVTIHRGTVQGGGLTKVGSDNLLMINAHVAHDCTVGNRCILANNATLAGHVSVDDFAIIGGMTAVHQFCIIGAHVMVGGCSGVAQDVPPYVIAQGNHATPFGVNIEGLKRRGFSREGLVAIRNAYKLLYRSGKTLDEAKLEIAELAEKHPEVKAFTEFFERSTRGPIR", "soluble on expression in E. coli": "not soluble"},
      {"sequence": "MIDLHCHSTVSDGMLSPAEVVRLAHQNGCTLLALTDHDHTGGIAEARAEADKLGLRLINGVEISVTWRGRTIHVVGLDFDEQDENLQNLLAQVRKGRLKRLEAIAAKLEKKGIGGAYDGALALAANKEMVSRTHVAEFLIQAGHVKNKQQAFTKYLGDGKSCAVRHEWATLEDCVSAVNGAGGMAVIAHPMRYDLSATAKRNLFEEFKNLGGAGIEVHSGNCCKNDRLNYALLAERFGMLASAGSDFHRLNDFSGGILGACPELPENCKPVWEHFSRY", "soluble on expression in E. coli": "not soluble"},
      {"sequence": "MIDLYYAPTPNGHKITLFLEEAELAYRLLKVDISKGNQFRPDFLAISPNNKIPAIVDHAPADGGQPLSLFESGEILLYLAEKSGKLLSGELRERHTTLQWLFWQVGGLGPMLGQNHHFNHFAPQAIPYAIERYQVETQRLYNVLNKRLETSPWLGGDHYSIADIASWPWVNAHQRQRIDLDTYPAVYNWFERIRTRPATARALLQAQLHCNSTKA", "soluble on expression in E. coli": "not soluble"},
      {"sequence": "MIDRLAMIGVNVKTASREHVARLEKEWEKHLDTIGYASRGTVIIATCNRFEVYLDSPSRLVEDLASSIASPGGEGLVRLQGIDAARHLFRVASGLESQIIGDHEVLGQVRRAWLKSREKGFTTPLLDEVFHRALKTGARVRSESAISSGGVGYSSAAVSLAASLLGGGLDGARVGIVGAGMAAVGIARALCTRWRPRVVAVFNRTPERGWEVAGKCRGVESLVLPLDELAKLINELDALFVAIAGSTNILERGRVERGVSPRVIVDISNPPVTPKVAGRVFHMPEVEEEAKRMMEERLRWIPAAEAIIEEELEALLDALSRRRARESSRSVMRALSILAEREYERTLAGLRNGVDPREAVELALNSYTKKVGGALRRLLEEASDRGQLSLEDIEAILVSEFARIAENSGFKNGSTG", "soluble on expression in E. coli": "soluble"},
      {"sequence": "MIDSQGWYRLARKVPSPHCDVRHDSEDISLLVVHNISLPPGQFGGPYIEQFFLGELDANQHSFFKVIAKMRVSAHCVIRRDGEVVQFVPFHLRAWHAGVSSFAGRAKCNDYSIGIELEGSDFVPYTDAQYQALTELTQALMVRYPHITLPRITGHQYIAPLRKTDPGLVFDWRRFRAGLKS", "soluble on expression in E. coli": "not soluble"},
      {"sequence": "MIDYTAAGFTLLQGAHLYAPEDRGICDVLVANGKIIAVASNIPSDIVPNCTVVDLSGQILCPGFIDQHVHLIGGGGEAGPTTRTPEVALSRLTEAGVTSVVGLLGTDSISRHPESLLAKTRALNEEGISAWMLTGAYHVPSRTITGSVEKDVAIIDRVIGVKCAISDHRSAAPDVYHLANMAAESRVGGLLGGKPGVTVFHMGDSKKALQPIYDLLENCDVPISKLLPTHVNRNVPLFEQALEFARKGGTIDITSSIDEPVAPAEGIARAVQAGIPLARVTLSSDGNGSQPFFDDEGNLTHIGVAGFETLLETVQVLVKDYDFSISDALRPLTSSVAGFLNLTGKGEILPGNDADLLVMTPELRIEQVYARGKLMVKDGKACVKGTFETA", "soluble on expression in E. coli": "soluble"},
      {"sequence": "MIEIPSDLHKDLVPLVFLLGDWAGAGVHDFPGAEKCNFGQEVSFTHDGRDFLEYQSHTWVLDNDGNKVRPLESEHGFWRIDANRKVEVTMTRDDGVIEIWYGELADQKPQIDLVTDAVARTAASQPYTGGKRLYGYVKSDLMWVGEKQTPEVELRPYMSAHLKKVVTPEDVERWAKALPDDMPDDGIAFFKLEHHHHHH", "soluble on expression in E. coli": "not soluble"},
      {"sequence": "MIELYSNAKLPTEFGLFRIYTFVNDENKDHAVIVRGDPRGKENVPLRIHSECLTGDVLGSLRCDCRDQLIQSLRYLGRQEYGMLIYLRQEGRGIGLLNKIKAYSLQDMGADTVEANLKLGLPVDSRNYSFAAEVLRYFEIKSIYIMTNNPEKIKSLIESGINVKGRIPIFSDPTPYDKFYLETKKTKLGHEIENILEHHHHHH", "soluble on expression in E. coli": "soluble"},
      {"sequence": "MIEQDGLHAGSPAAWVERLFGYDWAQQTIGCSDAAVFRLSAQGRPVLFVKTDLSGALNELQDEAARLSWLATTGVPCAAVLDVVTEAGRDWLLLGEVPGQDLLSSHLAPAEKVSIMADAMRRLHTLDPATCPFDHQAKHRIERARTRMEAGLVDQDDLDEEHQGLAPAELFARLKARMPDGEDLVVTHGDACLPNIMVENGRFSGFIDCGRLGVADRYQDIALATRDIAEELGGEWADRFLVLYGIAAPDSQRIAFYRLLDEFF", "soluble on expression in E. coli": "soluble"},
      {"sequence": "MIEQPSPKVYDELLSIWEEAVRSTHHFLTEADIQFYKPLIRHEYLAAVRLYIIREDSGTIAAFMGLSNDCIEMLFVRPNAHGHGYGSRLVEFAIRKKRIYKVDVNEQNAAALGFYLHMGFETTGRDALDATGKPFPILHLQIPPIRLRKATLEDIDLLRTLFTQSVQNTCSTDYNRLQIQAWTGRGTLQRWHELFQSDLYFLLAEDSRKSQVAGFTSVNSKGYLHSMFVHPDYQRQGIASRLLLKAEEYVRIRQGVSVYSEVSITARPFFEKHGYSIEKEQTVSVGDIEMTNFLMYKRI", "soluble on expression in E. coli": "not soluble"},
      {"sequence": "MIERVKGTRDFLPEDMAKRRWVFEKIREVFEAYGFKEILTPVMEYTKLFQLRSGEEVVKQLYAFKDKGGRDVSLRPDMTSSVARLYVNSFQMAPKPIKWYYIANMFRYEEPQSGRYREFWQAGVELIGSDKVEADAEVIALFVESYLSTGLRDFTVNIGDRILLDEFAGMLGVSDDIGLMRIIDKRDKLSQEEFINLLKEFGLGESEIEKVLELVEIKGRPDNVLPLAEELFKSKKAKEEISKLYKLTDLLEWYGVKDWIRIDLGIARGFDYYTSIVFEAISPNELGIGSIGGGGRYDNLIEIFGGKPTPATGFAIGIERLLPILEWKGLIPKPQTGPEVFVIPLKDMEKVAINIAVKLRREKIKTDIELSGRKLGKALDYANRVGAKLVIIVGKRDVERGVVTIRDMESGEQYNVSLNEIVDKVKNLLKR", "soluble on expression in E. coli": "soluble"},
      {"sequence": "MIERYSRPEMSAIWTDENRFQAWLEVEILACEAWAELGVIPKEDVKVMRENASFDINRILEIEKDTRHDVVAFTRAVSESLGEERKWVHYGLTSTDVVDTALSYLLKQANDILLKDLERFVDIIKEKAKEHKYTVMMGRTHGVHAEPTTFGLKLALWHEEMKRNLERFKQAKAGIEVGKISGAVGTYANIDPFVEQYVCEKLGLKAAPISTQTLQRDRHADYMATLALIATSIEKFAVEIRGLQKSETREVEEFFAKGQKGSSAMPHKRNPIGSENMTGMARVIRGYMMTAYENVPLWHERDISHSSAERIILPDATIALNYMLNRFSNIVKNLTVFPENMKRNMDRTLGLIYSQRVLLALIDTGLTREEAYDTVQPKAMEAWEKQVPFRELVEAEEKITSRLSPEKIADCFDYNYHLKNVDLIFERLGLA", "soluble on expression in E. coli": "soluble"},
      {"sequence": "MIFLNRERKGETNDHFDVNRVKFDDLGIPQDTGGLNRIRFKGENLGIMPTQLGHITPWLYRHFEYAYHVALQFNQHQKFQKLQKLRKLQKELPIAERAGEIVELLKTNQVLIVAGDTGCGKSTQVPQYLLKAGFTGVACTQPRRIACTALARRVAYETLNQYGSEVAFQIRFETTKSQKTKLLFLTEGLLLRQMEKDSLLEKYNVIILDEVHERHLTSDLLIGLLRDLCTKRDDLKLILMSATINLDLFKGYFEGAPVVQVPGRLFPIDVRWHPIKQFIDQSDKKTHKIDPEPYLKILELIDKQFPSTQRGDALIFLNGVAEISMVAEHLKNYAELTNGWIILMLHSTLSVEEQDKVFDQAPVGIRKCILSTNVAETSVTIDGIRFVIDSGKVNLIKHEPGTGTQKLTEFWVSKASANQRKGRAGRTGPGICYRLYSQEQFEKMDDFTVSEINRVSLQEMALKMISLNLGLDPRTFPFIEKPSEDVLNEGLEVLKFQRVLRSDRGDILTLTALGNMVSKLPVEVPIAKMLVYGCVVDELEVMLTVAAGLSVQSPFTNRSYRELEIVERRASLTSPLGDPFTLISIFREWVLQKAFEGTARRWTMENGIDEHRLYEISKLRAQYRQILEDAGLVEKASAAETGEDDSRQRRIDQGEKRKLFDLKKSQRNNDRRQKVLNANKHFDKILEDKEEEDLEAEKDPLKADVKTVEFLLSHKQRDVENIRKTHKISRKTAEVVRVIIAAGLYPNFSILDPVNKYGYGQEMFTHTRLKPFTQIHPNSSIAQYHPETIDPRQGSDGFSRLHQIPFYGLLLETTKPYICNVMPVPAVYTLLVAQKIVIEDDWSQLSIDDFLELRFRSSTDCRSVLLDAKEIRYELTKGLAAKLVGEAGFSGRRRLAKYIDLLNQSIVEKGIEVAVRRNVHPPKVLTGIGIHSPDGGIDKEEDVDDLVQRFERDQEPVHSAREEELEDQKVLDELRADVMCPPTRDMIEEAEKLKELKKKEIPKESYYEKLLKRQKAKEDDEKTEKKPKLEPLDTMEE", "soluble on expression in E. coli": "soluble"},
      {"sequence": "MIFRFGFVSNAMSLWDASPAKTLTFARYSKLSKTERKEALLTVTKANLRNTMRTLHYIIGHGIPLYRFSSSIVPLATHPDVMWDFVTPFQKEFREIGELVKTHQLRTSFHPNQFTLFTSPKESVTKNAVTDMAYHYRMLEAMGIADRSVINIHIGGAYGNKDTATAQFHQNIKQLPQEIKERMTLENDDKTYTTEETLQVCEQEDVPFVFDFHHFYANPDDHADLNVALPRMIKTWERIGLQPKVHLSSPKSEQAIRSHADYVDANFLLPLLERFRQWGTNIDFMIEAKQKDKALLRLMDELSSIRGVKRIGGGALQWKS", "soluble on expression in E. coli": "not soluble"},
      {"sequence": "MIFTSGANKLNDNRNVRTKISSNRQSIKTAPTKAAEIPEYLQLYQTPPGDDISLTEFDDIAMERLKLLKSFENLKDSVSLYNDEFKDKFRKLCDGTKLIVFPDQKPPHQEEVYELWRRDNIGHFILRLAFCRTPENQKWLTQIEGDFLRFRLRQEREQVLDSALANVNFTIEKLGYTEKQAMIEDLEAACQFNLFEAPNKTFYKVDFIDAIELIRRGSVHLKKGFAYFPFDDLVTILVTKMKNNMMAAMARSFKHLAILEEEGRLLPRLSLLSNNAYSGKDYNGEQPDGSIIVTRHMIDKLSRRSFAPCMKQMHNHLRVNHHLKYGARRQYGLFLKGIGLSLDEAIAMMRDEFTKKITSDKFDKEYGYNIRYMYGKEGRRVAQTAMSCATIILRNPPSAVDCHGCPFRHSEKQVLKQKLGSDAILKKEQIERIAELAELNQYDKACTRYFEFMHNLEEGGLGQLITHPNQFYEESQKIVAERIAAKQESQEAPAPKIEKMDTE", "soluble on expression in E. coli": "not soluble"},
      {"sequence": "MIGAILAGGYGKRLKPITDSIPKALVEIKDNYTIMDRQLFDFSIMGIEAVYILSGYLGNKIEERYGSRYRDMNIYYLREEKPLGTLYSLRNLIDEVKDDDIVLRNGDTVTDVNFLNFLKKAQDQKYYITMYVTRMKSPFGIVETFGDQIVQFREKPELNHYINAGLYYIKSDAFPYFFEKYIDRDLETTVFPRMAREGLIGSYTEEAMWIGIDSEKDLERIRADYRNREDYPWGYLKVLYDDDRSRLLEYAIKAGSDTEIDCGDGCILRIQSGLGTFGDSSDEKFRNGDVRSISGKVRVNAFENTRLELIISKKLEHHHHHH", "soluble on expression in E. coli": "soluble"},
      {"sequence": "MIGIVAAFEKVKIPEMGKSFGTGWLPPLPSLKDYTEESAQIPEMAEKLGIPTSRKETKTLELPVSIDFRNWCSPIEDQMDLGSCTAHAGVGVVEYFERRAFGKHIDGSRFFVYKTTRNLMGVKGDTGAWLRNTMGALALCGVPPEKYFPYTSRKTPGPDGEPTFDDEPSSFVYSLADNFEALNYFCHDPQGMNLPPEDVILSVKKYLAAGIPSMFGFYGFPSFKDTDVKGGIPFPGPDERSIWGHAVVAVGYDDNMKIRNTLSNKETTGAFLIRNSWGTAWGDKGYGWLPYEYALNKFALDFWSLISMKWVETGNFGLELESSRSRARETLSRDMPLPHALEHHHHHH", "soluble on expression in E. coli": "soluble"}
    ]}
  ]
}
